Source: patent CN111778218A (SHANDONG KUANHEZHENG BIOTECHNOLOGY MEDICINE CO LTD, dated 2020)

Target: T1, 牛血清白蛋白BSA (牛 (bovine), UniProt P02769 25-607)
T1 construct: also called 牛血清蛋白
Test: phage ELISA, BSA coated at 1 μg/mL

T1 sequence (P02769 25-607 limits assumed): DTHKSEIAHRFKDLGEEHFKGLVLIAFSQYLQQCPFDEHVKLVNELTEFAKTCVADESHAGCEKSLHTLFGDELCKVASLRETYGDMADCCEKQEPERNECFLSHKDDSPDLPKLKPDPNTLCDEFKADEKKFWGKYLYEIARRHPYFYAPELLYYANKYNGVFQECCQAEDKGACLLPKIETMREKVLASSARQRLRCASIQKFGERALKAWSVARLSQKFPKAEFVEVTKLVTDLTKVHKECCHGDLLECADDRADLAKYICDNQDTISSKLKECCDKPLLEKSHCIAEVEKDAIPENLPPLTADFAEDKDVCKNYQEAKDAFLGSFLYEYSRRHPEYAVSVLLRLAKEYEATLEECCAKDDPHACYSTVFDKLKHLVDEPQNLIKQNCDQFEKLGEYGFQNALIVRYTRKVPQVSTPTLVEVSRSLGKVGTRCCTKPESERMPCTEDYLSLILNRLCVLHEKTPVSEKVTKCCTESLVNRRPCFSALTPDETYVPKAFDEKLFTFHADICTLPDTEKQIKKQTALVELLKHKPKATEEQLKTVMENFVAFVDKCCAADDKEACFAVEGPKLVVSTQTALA

Row | Binder | binding result
1 | 噬菌体展示的单克隆抗体A9 (antibody, V domains shown, also called A9抗体) VH: EVQLLESGGGLVQPGGSLRLSCAASGFTFSSYAMSWVRQAPGKGLEWVSGITNSGSSTSYADSVKGRFTISRDNSKNTLYLQMNSLRAEDTAVYYCAKGTDAFDYWGQGTLVTVSS VL: DIQMTQSPSSLSASVGDRVTITCRASQSISSYLNWYQQKPGKAPKLLIYAASTLQSGVPSRFSGSGSGTDFTLTISSLQPEDFATYYCQQSNCSPATFGQGTKVEIKR | no binding
2 | 噬菌体展示的单克隆抗体H9 (antibody, V domains shown, also called H9抗体) VH: EVQLLESGGGLVQPGGSLRLSCAASGFTFSSYAMSWVRQAPGKGLEWVSDITDNGASTGYADSVKGRFTISRDNSKNTLYLQMNSLRAEDTAVYYCAKSTNTFDYWGQGTLVTVSS VL: DIQMTQSPSSLSASVGDRVTITCRASQSISSYINWYQQKPGKAPKLLIYDASSLQSGVPSRFSGSGSGTDFTLTISSLQPEDFATYYCQQNSNSPSTFGQGTKVEIKR | no binding
3 | 噬菌体展示的单克隆抗体E11 (antibody, V domains shown, also called E11抗体) VH: EVQLLESGGGLVQPGGSLRLSCAASGFTFSSYAMSWVRQAPGKGLEWVSSIDSSGYYTSYADSVKGRFTISRDNSKNTLYLQMNSLRAEDTAVYYCAKNSDSFDYWGQGTLVTVSS VL: DIQMTQSPSSLSASVGDRVTITCRASQSISSYLNWYQQKPGKAPKLLIYSASYLQSGVPSRFSGSGSGTDFTLTISSLQPEDFATYYCQQYDDGPNTFGQGTKVEIKR | no binding
4 | 噬菌体展示的单克隆抗体F10 (antibody, V domains shown, also called F10抗体) VH: EVQLLESGGGLVQPGGSLRLSCAASGFTFSSYAMSWVRQAPGKGLEWVSGIDSAGYYTTYADSVKGRFTISRDNSKNTLYLQMNSLRAEDTAVYYCAKDSDTFDYWGQGTLVTVSS VL: not shown | no binding
5 | 噬菌体展示的单克隆抗体F5 (antibody, V domains shown, also called F5抗体; 噬菌体展示F5抗体) VH: EVQLLESGGGLVQPGGSLRLSCAASGFTFSSYAMSWVRQAPGKGLEWVSTIDSAGNSTTYADSVKGRFTISRDNSKNTLYLQMNSLRAEDTAVYYCAKNDSSFDYWGQGTLVTVSS VL: DIQMTQSPSSLSASVGDRVTITCRASQSISSYLNWYQQKPGKAPKLLIYSASWLQSGVPSRFSGSGSGTDFTLTISSLQPEDFATYYCQQYSDGPDTFGQGTKVEIKR | no binding
